Experiment [1] has as its target N2 neuraminidase from A/Washington/01/2007 (Influenza A virus A/Washington/01/2007). Briefly: flow cytometry on NA-expressing cells.
In experiment [2] the target is N2_A_Leningrad_134_17_57 (influenza A virus). Briefly: flow cytometry on NA-expressing cells.

B1: FNI19-v3 (antibody, V domains shown)
VH: QVQLVQSGAEVKKPGSSVKVSCKASEGTFNKYTISWVRQAPGQGLEWMGGIIPISGIANYAQKFQGRVAITADESTTTAYMELSSLRSEDSAVYYCATAVSDYFNRDLGWEDYYFPFWGQGTLVTVSS
VL: EIVMTQSPATLSVSPGARATLFCRASRSVSDNLAWYQQKPGQAPRLLIFGASTRATGVPARFSGSGSGTQFTLTISSLQSEDFAVYYCQHYNIWPPWTFGQGTKVEIK
Consider B1, for which the MFI normalized vs wt in experiment [1] came out at 0.83; in experiment [2] it was 1.04.

For the origin of these results see US20240092876A1 (priority 2020, published 2024).
